Measured values as given in PMC12609122.

What was measured:
[1] = target: Tha4 A65CT78C (E10 background) (Pisum sativum); experiment: cross-linking; radiolabelled double-Cys Tha4 integrated into NEM-treated pea thylakoids; 0.25 mM BMOE, 10 min; four conditions: with or without precursor (V-20F)tOE17 (1.5 uM), with PMF (light, 15 °C) or without (dark, on ice; 0.5 uM nigericin and 1 uM valinomycin); SDS-PAGE and fluorography; result as told over the conditions
[2] = target: Tha4 E10A A18CL20C (Pisum sativum); experiment: cross-linking; as a1, the sample with the functional precursor (V-20F)tOE17 and with PMF (light)
[3] = target: Tha4 E10A F41CA45C (Pisum sativum); experiment: cross-linking; radiolabelled double-Cys Tha4 integrated into NEM-treated pea thylakoids; 0.25 mM BMOE, 10 min; four conditions: with or without precursor (V-20F)tOE17 (1.5 uM), with PMF (light, 15 °C) or without (dark, on ice; 0.5 uM nigericin and 1 uM valinomycin); SDS-PAGE and fluorography; result as told over the conditions
[4] = target: Tha4 E10A P56CP58C (Pisum sativum); experiment: as above
[5] = target: Tha4 E10A V8CP9C (Pisum sativum); experiment: as above
[6] = target: Tha4 E10A V21CG23C (Pisum sativum); experiment: as above
[7] = target: Tha4 E10D K39CQ43C (Pisum sativum); experiment: as above
[8] = target: Tha4 E10D P56CP58C (Pisum sativum); experiment: as above
[9] = target: Tha4 E10D V8CP9C (Pisum sativum); experiment: as above
[10] = target: Tha4 P56CP58C (E10 background) (Pisum sativum); experiment: as above
[11] = target: Tha4 V8CP9C (E10 background) (Pisum sativum); experiment: cross-linking; as a1, the samples with the functional precursor (V-20F)tOE17 (1.5 uM), with or without PMF
[12] = target: Tha4 V8CP9C (E10 background) (Pisum sativum); experiment: cross-linking; radiolabelled double-Cys Tha4 integrated into NEM-treated pea thylakoids; 0.25 mM BMOE, 10 min; four conditions: with or without precursor (V-20F)tOE17 (1.5 uM), with PMF (light, 15 °C) or without (dark, on ice; 0.5 uM nigericin and 1 uM valinomycin); SDS-PAGE and fluorography; result as told over the conditions
[13] = target: Tha4 V13CI14C (E10 background) (Pisum sativum); experiment: as above
[14] = target: Tha4 V21CG23C (E10 background) (Pisum sativum); experiment: as above

## Tha4 A65CT78C (E10 background) (natural protein)
[1]
  stoichiometry N: < 5

## Tha4 E10A A18CL20C (natural protein)
[2]
  stoichiometry N: < 4

## Tha4 E10A F41CA45C (natural protein)
[3]
  stoichiometry N: < 6

## Tha4 E10A P56CP58C (natural protein)
[4]
  stoichiometry N: < 4

## Tha4 E10A V8CP9C (natural protein)
[5]
  stoichiometry N: < 6

## Tha4 E10A V21CG23C (natural protein)
[6]
  stoichiometry N: < 10

## Tha4 E10D K39CQ43C (natural protein)
[7]
  stoichiometry N: < 4

## Tha4 E10D P56CP58C (natural protein)
[8]
  stoichiometry N: < 4

## Tha4 E10D V8CP9C (natural protein)
[9]
  stoichiometry N: < 6

## Tha4 P56CP58C (E10 background) (natural protein)
[10]
  stoichiometry N: < 4

## Tha4 V8CP9C (E10 background) (natural protein)
[11]
  stoichiometry N: < 6
[12]
  stoichiometry N: < 4

## Tha4 V13CI14C (E10 background) (natural protein)
[13]
  stoichiometry N: < 6

## Tha4 V21CG23C (E10 background) (natural protein)
[14]
  bands in the oligomer ladder: < 6 bands
